From article PMC3667199 (Biochemistry, 2011)

T1: PTP10D (Drosophila melanogaster, UniProt P35992)
T1 sequence (P35992 1226-1533): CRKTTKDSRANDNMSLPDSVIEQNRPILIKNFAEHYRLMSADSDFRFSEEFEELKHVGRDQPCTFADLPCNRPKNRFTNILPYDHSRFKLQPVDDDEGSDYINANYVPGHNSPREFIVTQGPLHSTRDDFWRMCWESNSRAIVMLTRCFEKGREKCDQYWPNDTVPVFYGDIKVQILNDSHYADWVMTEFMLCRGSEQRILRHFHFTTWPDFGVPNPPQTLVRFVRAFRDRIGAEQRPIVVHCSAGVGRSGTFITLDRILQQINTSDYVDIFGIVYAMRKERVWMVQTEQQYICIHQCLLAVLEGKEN


Tests used:
PTP10D = target: T1, PTP10D; experiment: crystal structure; type: biochemical
purified protein = substrate: O=[N+]([O-])c1ccc(OP(=O)(O)O)cc1; experiment: purified protein

Molecule | Ki (PTP10D) | Km (purified protein) | Vmax (purified protein) | kcat (purified protein) | kcat/Km (purified protein)
[O]=[V]([OH])([OH])[OH] [sodium vanadate] | 1.53 ± 0.14 µM | – | – | – | –
PTP10D (Drosophila melanogaster) (protein) CRKTTKDSRANDNMSLPDSVIEQNRPILIKNFAEHYRLMSADSDFRFSEEFEELKHVGRDQPCTFADLPCNRPKNRFTNILPYDHSRFKLQPVDDDEGSDYINANYVPGHNSPREFIVTQGPLHSTRDDFWRMCWESNSRAIVMLTRCFEKGREKCDQYWPNDTVPVFYGDIKVQILNDSHYADWVMTEFMLCRGSEQRILRHFHFTTWPDFGVPNPPQTLVRFVRAFRDRIGAEQRPIVVHCSAGVGRSGTFITLDRILQQINTSDYVDIFGIVYAMRKERVWMVQTEQQYICIHQCLLAVLEGKEN | – | 5.3128 ± 0.05842 mM | 13.7 µmol/min/mg | 8.24 ± 0.89 s⁻¹ | 1550 ± 160 M⁻¹ s⁻¹
